{
  "source": "patent US20020142982A1",
  "about": "“Method for regulating angiogenesis” (priority 1999, published 2002)",
  "target": "HA-tagged wild-type Akt (UniProt P31749)",
  "test": "cell-based or functional assay",
  "data": [
    {"substance": "T236A EDG-1 mutant receptor (from UniProt P21453 1-382)", "values": [
      {"measurement": "restoration of S1P-induced HUVEC chemotaxis by increasing wild-type Akt virus", "value": 65, "unit": "%"}
    ]}
  ]
}
